Legend:
[1] = molecular target: HLA-B*15:17; test: IEDB peptide-MHC binding, purified MHC/competitive/fluorescence; filed as Kd, often an IC50 or EC50 that approximates it; ≥ and ≤ were set here for values at or beyond the usual limits of such assays
[2] = molecular target: HLA-B*39:01; test: as above
[3] = molecular target: HLA-A*26:01; test: as above
[4] = molecular target: HLA-B*27:03; test: as above
[5] = molecular target: HLA-B*40:01; test: IEDB peptide-MHC binding, purified MHC/direct/fluorescence; filed as Kd, often an IC50 or EC50 that approximates it; ≥ and ≤ were set here for values at or beyond the usual limits of such assays; conditions: source organism: Orthohantavirus andesense
[6] = molecular target: HLA-A*02:19; test: as above; conditions: source organism: Limestone Canyon virus
[7] = molecular target: HLA-A*11:01; test: as above; conditions: source organism: Orthohantavirus andesense
[8] = molecular target: HLA-B*48:01; test: as above; conditions: source organism: Orthohantavirus andesense
[9] = molecular target: HLA-A*24:03; test: as above; conditions: source organism: Limestone Canyon virus
[10] = molecular target: HLA-A*69:01; test: as above; conditions: source organism: Orthohantavirus andesense
[11] = molecular target: HLA-A*23:01; test: as above; conditions: source organism: Limestone Canyon virus
[12] = molecular target: HLA-B*07:02; test: as above; conditions: source organism: Orthohantavirus andesense
[13] = molecular target: HLA-B*44:02; test: as above; conditions: source organism: Orthohantavirus andesense
[14] = molecular target: HLA-B*57:01; test: as above; conditions: source organism: Orthohantavirus andesense
[15] = molecular target: HLA-A*03:01; test: as above; conditions: source organism: Orthohantavirus andesense
[16] = molecular target: HLA-B*15:01; test: as above; conditions: source organism: Orthohantavirus andesense
[17] = molecular target: HLA-B*58:01; test: as above; conditions: source organism: Orthohantavirus andesense
[18] = molecular target: HLA-B*18:01; test: as above; conditions: source organism: Orthohantavirus andesense
[19] = molecular target: HLA-A*02:01; test: as above; conditions: source organism: Orthohantavirus andesense
[20] = molecular target: HLA-A*31:01; test: as above; conditions: source organism: Orthohantavirus andesense
[21] = molecular target: HLA-B*27:05; test: as above; conditions: source organism: Orthohantavirus andesense
[22] = molecular target: HLA-B*46:01; test: as above; conditions: source organism: Orthohantavirus andesense
[23] = molecular target: HLA-A*68:02; test: as above; conditions: source organism: Limestone Canyon virus
[24] = molecular target: HLA-A*01:01; test: as above; conditions: source organism: Orthohantavirus andesense
[25] = molecular target: HLA-A*02:12; test: as above; conditions: source organism: Limestone Canyon virus
[26] = molecular target: HLA-A*29:02; test: as above; conditions: source organism: Orthohantavirus andesense
[27] = molecular target: HLA-B*08:01; test: as above; conditions: source organism: Hantavirus Monongahela-3
[28] = molecular target: HLA-A*02:03; test: IEDB peptide-MHC binding, purified MHC/competitive/fluorescence; filed as Kd, often an IC50 or EC50 that approximates it; ≥ and ≤ were set here for values at or beyond the usual limits of such assays; conditions: source organism: Vibrio vulnificus YJ016
[29] = molecular target: HLA-A*02:19; test: as above; conditions: source organism: Vibrio vulnificus YJ016
[30] = molecular target: HLA-A*24:03; test: as above; conditions: source organism: Vibrio vulnificus YJ016
[31] = molecular target: HLA-A*69:01; test: as above; conditions: source organism: Vibrio vulnificus YJ016
[32] = molecular target: HLA-B*51:01; test: as above; conditions: source organism: Vibrio vulnificus YJ016
[33] = molecular target: HLA-B*57:01; test: as above; conditions: source organism: Vibrio vulnificus YJ016
[34] = molecular target: HLA-B*15:01; test: as above; conditions: source organism: Vibrio vulnificus YJ016
[35] = molecular target: HLA-B*18:01; test: as above; conditions: source organism: Vibrio vulnificus YJ016
[36] = molecular target: HLA-A*02:01; test: as above; conditions: source organism: Vibrio vulnificus YJ016
[37] = molecular target: HLA-B*46:01; test: as above; conditions: source organism: Vibrio vulnificus YJ016
[38] = molecular target: HLA-A*68:02; test: as above; conditions: source organism: Vibrio vulnificus YJ016
[39] = molecular target: HLA-A*02:12; test: as above; conditions: source organism: Vibrio vulnificus YJ016
[40] = source organism: Four Corners hantavirus
[41] = source organism: Vibrio vulnificus YJ016

In the case of EKLKKKSAF, the Kd [1, 40] is reported as ≥ 20 µM, the Kd [2, 40] is reported as ≥ 20 µM and the Kd [3, 40] is reported as ≥ 20 µM. For the same sequence, the Kd [4, 40] was ≥ 20 µM, the Kd [5] was ≥ 20 µM and the Kd [6] was ≥ 20 µM. The Kd [7] was ≥ 20 µM, the Kd [8] was ≥ 20 µM and the Kd [9] was ≥ 20 µM. For the same sequence, the Kd [10] was ≥ 20 µM, the Kd [11] was ≥ 20 µM and the Kd [12] was ≥ 20 µM. The Kd [13] was ≥ 20 µM, the Kd [14] was ≥ 20 µM and the Kd [15] was ≥ 20 µM. For the same sequence, the Kd [16] was ≥ 20 µM, the Kd [17] was ≥ 20 µM and the Kd [18] was ≥ 20 µM. The Kd [19] was ≥ 20 µM, the Kd [20] was ≥ 20 µM and the Kd [21] was ≥ 20 µM. For the same sequence, the Kd [22] was ≥ 20 µM, the Kd [23] was ≥ 20 µM and the Kd [24] was ≥ 20 µM. The Kd [25] was ≥ 20 µM, the Kd [26] was ≥ 20 µM and the Kd [27] was ≥ 5 µM.
GMWCVLASR was tested, and the Kd [1, 41] was ≥ 20 µM, the Kd [28] was ≥ 20 µM and the Kd [29] was ≥ 20 µM. The Kd [30] was ≥ 20 µM, the Kd [31] was ≥ 20 µM and the Kd [32] was ≥ 20 µM. The Kd [2, 41] was ≥ 20 µM, the Kd [33] was ≥ 20 µM and the Kd [34] was ≥ 20 µM. For the same sequence, the Kd [35] was ≥ 20 µM, the Kd [3, 41] was ≥ 20 µM and the Kd [36] was ≥ 20 µM. For the same sequence, the Kd [37] was ≥ 20 µM, the Kd [38] was ≥ 20 µM and the Kd [4, 41] was ≥ 20 µM. The Kd [39] was 0.93 µM.

— the Immune Epitope Database (IEDB)
